Key:
Aβ1-40 synthetic peptide = biological target: T1, Aβ1-40 synthetic peptide (UniProt P05067 672-711); assay: ELISA, Aβ1-40-coated wells, 0-37.5 nM cystatin C
T1 construct: domain: Aβ1-40; Coated on microtiter wells, freshly dissolved; also called Aβ40
Procedure: (§1) Two different batches of each peptide were used in the experiments. Wild type and variant cystatin C, purified from conditioned media as described above, were compared to urinary cystatin C (Calbiochem Biosciences). Polystyrene microtiter plates (Immunolon 2; Dynex Technology) were coated for 16 hours at 4° C. with freshly dissolved Aβ peptides (400 ng in 100 µl of NaHCO_3 $pH$ 9.6 per well). After blocking with 200 µl Superblock (Pierce), increasing concentrations of either wild type, variant or urinary cystatin C (0-37.5 nM) in 100 µl TBS-T (20 mM Tris-HCl, 150 mM NaCl pH 7.4, containing 0.1% Tween-20) were added to the Aβ-coated wells and incubated for 3 hours at 37° C. Bound cystatin C was detected with 100 µl polyclonal anti-cystatin C antibody (1:600) followed by 100 µl horseradish peroxidase-conjugated F(ab')2 anti-rabbit IgG (1:4000, Amersham) and developed using 100 µl 3,3',5,5'-tetramethyl-benzidine as substrate; Absorbency was read at 450 nm after stopping the reaction with 100 µl 2.5N sulfuric acid. Non-linear regression analysis, estimation of dissociation constants and comparison of protein binding data were assessed for statistical significance with GraphPad Prism software (GraphPad, San Diego, Calif., USA). P values were calculated by one-way ANOVA of three independent repeated measures of duplicate samples. […]

[1] = biological target: T2, full-length βAPP (βAPP751 cDNA, in HEK293 cells) (UniProt P05067-8 18-751, limits assumed); assay: immunoprecipitation of HEK293 cell lysate proteins with anti-cystatin C antibody, immunoblot with 22C11
T2 construct: whole, on cells; Tested by co-immunoprecipitation from cell lysates, not on intact cells; also called β amyloid precursor protein; cell associated full-length βAPP
Procedure: Media was replaced 16 hours after transient transfection, harvested 24 hours later, and spun at 4,500×g for 10 minutes at 4° C. Cells were harvested in RIPA buffer (1% NP-40, 0.5% cholic acid, 0.1% SDS; 150 mM NaCl, 10 mM Tris-HCl, pH 8.0) with protease inhibitors (7.5 μg/ml Aprotinin; 5 μg/ml leupeptin; 2 mM PMSF) and centrifuged for 5 minutes at 10,000 rpm at 4° C. Cellular and secreted proteins were immunoprecipitated with either polyclonal antibodies and Protein A Sepharose (Pharmacia Biotech) for 4 hours at 4° C. or with monoclonal antibodies overnight at 4° C. and with GammaBind Plus Sepharose beads (Pharmacia Biotech) for 2 hours at 4° C.
The interaction of cystatin C with βAPP was examined in HEK293 cells stably expressing either wild type or variant cystatin C genes, and transiently transfected with either wild type βAPP or vector cDNAs. […] The data indicates binding between cystatin C and cell associated full-length as well as sβAPP.

Aβ1-42 synthetic peptide = biological target: T3, Aβ1-42 synthetic peptide (UniProt P05067 672-713); assay: ELISA, Aβ1-42-coated wells, 0-37.5 nM cystatin C
T3 construct: domain: Aβ1-42; Coated on microtiter wells, freshly dissolved; Also used in the fibril and oligomerization assays; also called Aβ42
Procedure: as §1

binding result (Aβ1-40 synthetic peptide): binds | binding result [1]: binds | binding result (Aβ1-42 synthetic peptide): binds
B1: variant human cystatin C (L68Q, HCHWA-I variant) (other, UniProt P01034 27-146, looked up)
chain: SSPGKPPRLVGGPMDASVEEEGVRRALDFAVGEYNKASNDMYHSRALQVVRARKQIVAGVNYFLDVEQGRTTCTKTQPNLDNCPFHDQPHLKRKAFCSFQIYAVPWQGTMTLSKSTCQDA
notes: mature; Position 68 counts on the mature protein, not on the precursor with signal peptide; also called cystatin C-V; CysC-V
